Test results taken from the supplement of paper PMC9233669.
Variants at the floor of the assay were thinned out.

What was measured:
[1] = system: biotinyl-Leu-oxazolone; test: self-aminoacylation, catalytic enhancement (BLO) (fold over background); higher = more active; k-Seq, kA / k0A0; sequences stand for … in GGGAAUGGAUCCACAUCUACGAAUUC…UUCACUGCAGACUUGACGAAGCUG
How it was run: (§1)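 Each biotinyl-aminoacyl-oxazolone, at 2–1250 μM, was incubated with mutagenized RNA pools (0.43 μM) carrying a 21-nt variable region. The 50 μL reactions contained HEPES/NaCl/KCl/MgCl2/CaCl2 buffer with 5% acetonitrile at pH 6.9–7.0 and ran for 90 minutes at room temperature. After streptavidin capture, RNA was measured by qPCR in triplicate and by Illumina sequencing, and catalytic enhancement was calculated as median kA over the uncatalyzed rate from a pseudo-first-order fit of per-sequence fraction reacted.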

[2] = system: biotinyl-Val-oxazolone; test: self-aminoacylation, catalytic enhancement (BVO) (fold over background); higher = more active; k-Seq, kA / k0A0; sequences stand for … in GGGAAUGGAUCCACAUCUACGAAUUC…UUCACUGCAGACUUGACGAAGCUG
How it was run: as §1

[3] = system: biotinyl-Met-oxazolone; test: self-aminoacylation, catalytic enhancement (BMO) (fold over background); higher = more active; k-Seq, kA / k0A0; sequences stand for … in GGGAAUGGAUCCACAUCUACGAAUUC…UUCACUGCAGACUUGACGAAGCUG
How it was run: as §1

[4] = system: biotinyl-Ile-oxazolone; test: self-aminoacylation, catalytic enhancement (BIO) (fold over background); higher = more active; k-Seq, kA / k0A0; sequences stand for … in GGGAAUGGAUCCACAUCUACGAAUUC…UUCACUGCAGACUUGACGAAGCUG
How it was run: as §1

[5] = system: biotinyl-Phe-oxazolone; test: self-aminoacylation, catalytic enhancement (BFO) (fold over background); higher = more active; k-Seq, kA / k0A0; sequences stand for … in GGGAAUGGAUCCACAUCUACGAAUUC…UUCACUGCAGACUUGACGAAGCUG
How it was run: as §1

[6] = system: biotinyl-Trp-oxazolone; test: self-aminoacylation, catalytic enhancement (BWO) (fold over background); higher = more active; k-Seq, kA / k0A0; sequences stand for … in GGGAAUGGAUCCACAUCUACGAAUUC…UUCACUGCAGACUUGACGAAGCUG
How it was run: as §1

Sequence: AUUACCCUGGGCAUCGAGUGA [Fam2.1 aminoacylation ribozyme variant]
- self-aminoacylation [1]: 5.1
- self-aminoacylation [2]: 2.75
- self-aminoacylation [3]: 4.85
- self-aminoacylation [4]: 2.57
- self-aminoacylation [5]: 21.4
- self-aminoacylation [6]: 5.82

Sequence: CCACAAUUCAGGCAAUCGGUC [Fam1B.1 aminoacylation ribozyme variant]
- self-aminoacylation [1]: 1.46
- self-aminoacylation [2]: 1.42
- self-aminoacylation [3]: 1.37
- self-aminoacylation [4]: 1.47
- self-aminoacylation [5]: 1.29
- self-aminoacylation [6]: 0.94

Sequence: AUUCACCUGAGUCAUCGGGUG [Fam2.2 aminoacylation ribozyme variant]
- self-aminoacylation [1]: 15
- self-aminoacylation [2]: 5.03
- self-aminoacylation [3]: 13
- self-aminoacylation [4]: 5.26
- self-aminoacylation [5]: 35.9
- self-aminoacylation [6]: 9.59

Sequence: CCACCCUUCGAGCAAUCGGUC [Fam1B.1 aminoacylation ribozyme variant]
- self-aminoacylation [1]: 1.34
- self-aminoacylation [2]: 2.06
- self-aminoacylation [3]: 1.94
- self-aminoacylation [4]: 1.49
- self-aminoacylation [5]: 0.944
- self-aminoacylation [6]: 2.58

Sequence: AAGUUAGCUAAUAGUCGCAUG [Fam3.1 aminoacylation ribozyme variant]
- self-aminoacylation [1]: 1.97
- self-aminoacylation [2]: 1.34
- self-aminoacylation [3]: 1.07
- self-aminoacylation [4]: 1.83
- self-aminoacylation [5]: 3
- self-aminoacylation [6]: 1.64

Sequence: CUACGUCAAACAUUCGGUCUG [Fam1A.1 aminoacylation ribozyme variant]
- self-aminoacylation [1]: 2.5
- self-aminoacylation [2]: 3.79
- self-aminoacylation [3]: 2.93
- self-aminoacylation [4]: 2.87
- self-aminoacylation [5]: 12.8
- self-aminoacylation [6]: 3.07

Sequence: AAGUUUGCUAAUAGUCACAAU [Fam3.1 aminoacylation ribozyme variant]
- self-aminoacylation [1]: 0.82
- self-aminoacylation [2]: 1.19
- self-aminoacylation [3]: 1.18
- self-aminoacylation [4]: 1.18
- self-aminoacylation [5]: 1.14
- self-aminoacylation [6]: 1.11

Sequence: GUUAACCUGGUCAUCGAGUGA [Fam2.1 aminoacylation ribozyme variant]
- self-aminoacylation [1]: 6.73
- self-aminoacylation [2]: 3.95
- self-aminoacylation [3]: 6.75
- self-aminoacylation [4]: 4.69
- self-aminoacylation [5]: 24.2
- self-aminoacylation [6]: 8.69

Sequence: AUUUCCCUGGUGAUCGAGUGA [Fam2.1 aminoacylation ribozyme variant]
- self-aminoacylation [1]: 5.66
- self-aminoacylation [2]: 3.15
- self-aminoacylation [3]: 5.5
- self-aminoacylation [4]: 2.77
- self-aminoacylation [5]: 44.4
- self-aminoacylation [6]: 6.58

Sequence: AUACACCUAGGUCAUCGGGGG [Fam2.2 aminoacylation ribozyme variant]
- self-aminoacylation [1]: 1.39
- self-aminoacylation [2]: 1.73
- self-aminoacylation [3]: 1.29
- self-aminoacylation [4]: 1.85
- self-aminoacylation [5]: 4.96
- self-aminoacylation [6]: 1.22

Sequence: AUCAUCCUGGUCAUCGAGUGA [Fam2.1 aminoacylation ribozyme variant]
- self-aminoacylation [1]: 10.1
- self-aminoacylation [2]: 4.82
- self-aminoacylation [3]: 9.33
- self-aminoacylation [4]: 4.91
- self-aminoacylation [5]: 36.4
- self-aminoacylation [6]: 10.5

Sequence: CCACACUUCAAGGAAUCUGUC [Fam1B.1 aminoacylation ribozyme variant]
- self-aminoacylation [1]: 0.318
- self-aminoacylation [2]: 0.446
- self-aminoacylation [3]: 0.442
- self-aminoacylation [4]: 0.384
- self-aminoacylation [5]: 0.473
- self-aminoacylation [6]: 0.287

Sequence: AUUACCCCUGUCAUCGAGUGA [Fam2.1 aminoacylation ribozyme variant]
- self-aminoacylation [1]: 5.42
- self-aminoacylation [2]: 3.14
- self-aminoacylation [3]: 4.96
- self-aminoacylation [4]: 3.62
- self-aminoacylation [5]: 28.2
- self-aminoacylation [6]: 7.28

Sequence: AUUACGCUGGUCAUCCAGUGA [Fam2.1 aminoacylation ribozyme variant]
- self-aminoacylation [1]: 3.99
- self-aminoacylation [2]: 1.96
- self-aminoacylation [3]: 3.63
- self-aminoacylation [4]: 2.27
- self-aminoacylation [5]: 12.8
- self-aminoacylation [6]: 4.31

Sequence: AUUCACCUAAGGCAUCGGGUG [Fam2.2 aminoacylation ribozyme variant]
- self-aminoacylation [1]: 4.9
- self-aminoacylation [2]: 3.31
- self-aminoacylation [3]: 3.3
- self-aminoacylation [4]: 2.69
- self-aminoacylation [5]: 26.5
- self-aminoacylation [6]: 3.67

Sequence: AUUUACCUAGCUCAUCGGGUG [Fam2.2 aminoacylation ribozyme variant]
- self-aminoacylation [1]: 2.58
- self-aminoacylation [2]: 2.4
- self-aminoacylation [3]: 2.16
- self-aminoacylation [4]: 2.01
- self-aminoacylation [5]: 8.53
- self-aminoacylation [6]: 2.04

Sequence: AUUACCCUGGUCAUAGGGUGA [Fam2.1 aminoacylation ribozyme variant]
- self-aminoacylation [1]: 7.73
- self-aminoacylation [2]: 3.12
- self-aminoacylation [3]: 6.67
- self-aminoacylation [4]: 4.03
- self-aminoacylation [5]: 42.3
- self-aminoacylation [6]: 7.12

Sequence: AACUGUGCUAAUAGUCGCAAG [Fam3.1 aminoacylation ribozyme variant]
- self-aminoacylation [1]: 2.35
- self-aminoacylation [2]: 1.61
- self-aminoacylation [3]: 1.81
- self-aminoacylation [4]: 2.14
- self-aminoacylation [5]: 2.41
- self-aminoacylation [6]: 2.34

Sequence: CUACUUCAAACAAUCGGUAUC [Fam1A.1 aminoacylation ribozyme variant]
- self-aminoacylation [1]: 0.554
- self-aminoacylation [2]: 0.594
- self-aminoacylation [3]: 0.541
- self-aminoacylation [4]: 0.635
- self-aminoacylation [5]: 2.2
- self-aminoacylation [6]: 0.994

Sequence: AUUCCGCUGGUCAUCGAGUGA [Fam2.1 aminoacylation ribozyme variant]
- self-aminoacylation [1]: 6.79
- self-aminoacylation [2]: 3.7
- self-aminoacylation [3]: 6.08
- self-aminoacylation [4]: 3.34
- self-aminoacylation [5]: 45.4
- self-aminoacylation [6]: 8.05

Sequence: CUACACUUCAAGCAAUCGGUG [Fam1B.1 aminoacylation ribozyme variant]
- self-aminoacylation [1]: 4.94
- self-aminoacylation [2]: 2.61
- self-aminoacylation [3]: 3.49
- self-aminoacylation [4]: 2.71
- self-aminoacylation [5]: 5.79
- self-aminoacylation [6]: 4.25

Sequence: CUACUUAAAACAAUCGGUCUA [Fam1A.1 aminoacylation ribozyme variant]
- self-aminoacylation [1]: 0.602
- self-aminoacylation [2]: 0.894
- self-aminoacylation [3]: 0.729
- self-aminoacylation [4]: 0.766
- self-aminoacylation [5]: 0.81
- self-aminoacylation [6]: 0.711

Sequence: AAGUACGCUAAUAGUCGCAAG [Fam3.1 aminoacylation ribozyme variant]
- self-aminoacylation [1]: 2.38
- self-aminoacylation [2]: 1.8
- self-aminoacylation [3]: 1.59
- self-aminoacylation [4]: 1.94
- self-aminoacylation [5]: 6.76
- self-aminoacylation [6]: 3.1

Sequence: AUUACACUGGUCACCGAGUGA [Fam2.1 aminoacylation ribozyme variant]
- self-aminoacylation [1]: 5.41
- self-aminoacylation [2]: 2.91
- self-aminoacylation [3]: 5.29
- self-aminoacylation [4]: 2.95
- self-aminoacylation [5]: 24.5
- self-aminoacylation [6]: 7.35

Sequence: AUUCACCUAAGUCAUCGGGCG [Fam2.2 aminoacylation ribozyme variant]
- self-aminoacylation [1]: 4.95
- self-aminoacylation [2]: 2.53
- self-aminoacylation [3]: 2.83
- self-aminoacylation [4]: 2.63
- self-aminoacylation [5]: 9.59
- self-aminoacylation [6]: 2.51

Sequence: AUUACCCGGGUAAUCGAGUGA [Fam2.1 aminoacylation ribozyme variant]
- self-aminoacylation [1]: 13.9
- self-aminoacylation [2]: 5.84
- self-aminoacylation [3]: 12.1
- self-aminoacylation [4]: 5.16
- self-aminoacylation [5]: 81
- self-aminoacylation [6]: 13.2
